Measurements as given in US20160017037A1 (GlaxoSmithKline, published 2016).

Biological target: T1, Fc-tagged recombinant soluble LAG-3 (IMP321) (human, UniProt P18627 23-434)
T1 construct: also called LAG3-Ig molecule IMP321; recombinant sLAG-3; not shown: Fc / Ig part
T1 sequence (looked up): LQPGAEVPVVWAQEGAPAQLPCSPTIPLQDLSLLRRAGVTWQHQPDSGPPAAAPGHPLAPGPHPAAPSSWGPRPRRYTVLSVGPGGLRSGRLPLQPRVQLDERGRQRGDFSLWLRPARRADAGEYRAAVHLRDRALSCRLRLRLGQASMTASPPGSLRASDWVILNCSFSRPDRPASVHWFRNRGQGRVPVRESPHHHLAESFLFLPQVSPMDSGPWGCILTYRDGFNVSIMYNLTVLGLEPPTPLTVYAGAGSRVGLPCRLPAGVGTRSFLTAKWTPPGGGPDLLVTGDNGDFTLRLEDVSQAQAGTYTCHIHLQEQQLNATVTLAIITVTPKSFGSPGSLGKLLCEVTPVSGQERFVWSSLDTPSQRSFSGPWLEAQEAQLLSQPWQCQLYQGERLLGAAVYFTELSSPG
Assay: SPR Biacore 3000, off-rate comparison with IMP731, IMP321 analyte at 64 nM
Description: The binding kinetics of the purified antibodies for a sLAG-3 molecule were assessed by SPR using a Biacore™ 3000. A goat anti-human kappa antibody (Southern Biotech, Catalogue No. 2060-01) was immobilised on a CM5 chip by primary amine coupling. Humanised anti-LAG3 antibodies were captured on this surface and the LAG3-Ig molecule IMP321 (Chrystelle Brignone, Caroline Grygar, Manon Marcu, Knut Schakel, Frederic Triebel, The Journal of Immunology, 2007, 179: 4202-4211) used as the analyte at 64 nM with a buffer injection (i.e. 0 nM) used to double reference the binding curves. Regeneration was with 10 mM Glycine, pH1.5. The run was carried out on the Biacore™ 3000, using HBS-EP as running buffer and at 25° C. Sensorgrams were normalised for binding at maximal association and off-rates compared against IMP731 by visual inspection of the sensorgram profiles.

B1: H5L7 (antibody, human IgG1, kappa)
heavy: not shown
light: DIQMTQSPSSLSASVGDRVTITCKSSQSLLNPSNQKNYLAWYQQKPGKAPKLLVYFASTRDSGVPSRFSGSGSGTDFTLTISSLQPEDFATYYCLQHFGTPPTFGQGTKLEIKRTVAAPSVFIFPPSDEQLKSGTASVVCLLNNFYPREAKVQWKVDNALQSGNSQESVTEQDSKDSTYSLSSTLTLSKADYEKHKVYACEVTHQGLSSPVTKSFNRGEC
notes: Humanised IgG1/kappa of A9H12 (IMP731); also called fucosylated H5L7; non-ADCC enhanced variant H5L7
Rank order of off-rates: 1
